Source: patent US20050250143

Test system: Myc-tagged MIF1/MSP58 protein (plasmid pCM562), expressed in CHO stable clone #34
Sequence (chain, as listed by the source): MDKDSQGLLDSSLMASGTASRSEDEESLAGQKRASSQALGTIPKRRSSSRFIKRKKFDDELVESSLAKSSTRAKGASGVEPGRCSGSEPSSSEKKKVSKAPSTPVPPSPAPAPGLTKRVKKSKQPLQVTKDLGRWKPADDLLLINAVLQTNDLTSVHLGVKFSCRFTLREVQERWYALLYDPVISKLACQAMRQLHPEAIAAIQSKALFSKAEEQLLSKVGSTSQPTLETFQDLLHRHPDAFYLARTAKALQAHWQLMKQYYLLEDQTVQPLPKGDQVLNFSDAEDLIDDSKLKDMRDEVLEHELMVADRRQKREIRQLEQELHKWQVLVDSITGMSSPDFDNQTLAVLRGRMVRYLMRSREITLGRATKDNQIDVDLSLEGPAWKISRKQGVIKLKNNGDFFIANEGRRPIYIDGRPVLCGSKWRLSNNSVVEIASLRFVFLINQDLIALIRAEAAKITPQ

“MEKK1 of CHO cells (cellular, activated by sorbitol)” was tested, and the “JNK activation (in vitro GST-Jun(1-223) phosphorylation) after 200 mM sorbitol, CHOMIF1 #34 against CHOpCDNA3” value was “Cells expressing MIF1 showed an inhibition of JNK activation (revelated by weak GST-JUNphosphorylation) in response to sorbitol incubation”.
